Experimental data: patent publication US8444970B2, “Compositions and methods for treating ocular diseases and conditions” (Lpath, Inc., priority 2006, dated 2013)

Legend:
[1] = Competitive ELISA for specificity / cross-reactivity to bioactive lipids; type: binding; details: for recognition of ceramide-1-phosphate (C1P): competitor lipid C1P; for cross-reactivity to lysophosphatidic acid (LPA): competitor lipid LPA; for cross-reactivity with sphingosylphosphorylcholine (SPC): competitor lipid SPC
Protocol: Screening of serum and cell supernatant for S1P-specific antibodies was by direct ELISA using a thiolated S1P analog as the antigen. A standard ELISA was performed, as described below, except that 50 ul of sample (serum or cell supernatant) was diluted with an equal volume of PBS/0.1% Tween-20 (PBST) during the primary incubation. ELISAs were performed in 96-well high binding ELISA plates (Costar) coated with 0.1 μg of chemically-synthesized thiolated-S1P conjugated to BSA in binding buffer (33.6 mM Na2CO3, 100 mM NaHCO3; pH 9.5). The thiolated-S1P-BSA was incubated at 37° C. for 1 hr. at 4° C. overnight in the ELISA plate wells. The plates were then washed four times with PBS (137 mM NaCl, 2.68 mM KCl, 10.14 mM Na2HPO4, 1.76 mM KH2PO4; pH 7.4) and blocked with PBST for 1 hr. at room temperature. For the primary incubation step, 75 uL of the sample (containing the S1P to be measured), was incubated with 25 uL of 0.1 ug/mL anti-S1P mAb diluted in PBST and added to a well of the ELISA plate. Each sample was performed in triplicate wells. Following a 1 hr. incubation at room temperature, the ELISA plates were washed four times with PBS and incubated with 100 ul per well of 0.1 ug/mL HRP goat anti-mouse secondary (Jackson Immunoresearch) for 1 hr. at room temperature. Plates were then washed four times with PBS and exposed to tetramethylbenzidine (Sigma) for 1-10 minutes. The detection reaction was stopped by the addition of an equal volume of 1M H2SO4. Optical density of the samples was determined by measurement at 450 nm using an EL-X-800 ELISA plate reader (Bio-Tech).
For cross reactivity, a competitive ELISA was performed as described above, except for the following alterations. The primary incubation consisted of the competitor (S1P, SPH, LPA, etc.) and a biotin-conjugated anti-S1P mAb. Biotinylation of the purified monoclonal antibody was performed using the EZ-Link Sulfo-NHS-Biotinylation kit (Pierce). Biotin incorporation was determined as per kit protocol and ranged from 7 to 11 biotin molecules per antibody. The competitor was prepared as follows: lipid stocks were sonicated and dried under argon before reconstitution in DPBS/BSA [1 mg/ml fatty acid free BSA (Calbiochem) in DPBS (Invitrogen 14040-133)]. Purified anti-S1P mAb was diluted as necessary in PBS/0.5% Triton X-100. Competitor and antibody solutions were mixed together so to generate 3 parts competitor to 1 part antibody. A HRP-conjugated streptavidin secondary antibody (Jackson Immunoresearch) was used to generate signal.
i. Specificity. The humanized variants were tested for specificity in a competitive ELISA assay (FIG. 1) against S1P and several other biolipids. This assay has the added benefit to allow for epitope mapping.

[2] = system: CNV lesions after laser-induced rupture of Bruch's membrane; assay: Murine model of laser-induced CNV and scar formation (Example 4); type: in vivo, mouse; details: 0.5 ug
Protocol: Female C57BL6/J mice were subjected to laser-induced rupture of Bruch's membrane and administered either 0.5 μg of Sphingomab or an isotype-matched non-specific (NS) antibody diluted in 2 μl of physiological saline. Mice were sacrificed 14 and 28 days after laser rupture.
To induce CNV lesions, the pupils were dilated with ophthalmic tropicamide (0.5%) and phenylephrine (2.5%). A coverslip was placed on the eye. An Oculight GL 532 nm (Iridex Corporation, Mountain View, Calif.) coupled to a slit lamp set to deliver a 100 msec pulse at 150 mW with a 50 μm spot size was used to rupture Bruch's membrane in three quadrants of the right eye located approximately 50 μm from the optic disc at relative 9, 12 and 3 o'clock positions. The left eye served as an uninjured control in all cases. Any lesion not associated with a vapor bubble or lesions that became confluent were excluded from analysis. […]
To assess collagen deposition, the sclera-choroid-RPE complex was stained with Masson's Trichrome. […] Approximately 30 sections per lesion were evaluated. Quantitation of the volume of collagen deposition was calculated in the same manner as described for CNV lesion volume.
Captured digital images were evaluated morphometrically using ImageJ software (Research Services Branch, National Institutes of Health, Bethesda, Md.).

HUVECs = assay: HUVEC tube formation on Matrigel; type: cell-based, human; details: co-incubated with S1P, GF-reduced Matrigel, 6 hr
Protocol: FIG. 5. FIG. 5 has two panels, A and B. In panel A, S1P is shown to promote neovascularization through induction of HUVECs tube formation and migration, which is reduced by SPHINGOMAB. […] The number of cells that migrated to the Matrigel membrane were counted in five independent fields.
Experiments were performed as described by Visentin et al. (Cancer Cell 2006 March; 9(3):225-38).

[3] = system: endothelial cell (EC) infiltration into Matrigel plugs; assay: In vivo Matrigel plug assay, S1P-supplemented plugs, EC infiltration; design: species or system mouse; details: systemic administration every 48 hrs from 1 day prior to implantation
Protocol: Based on in vivo studies showing that S1P increased endothelial capillary growth into subcutaneously implanted Matrigel plugs, we speculated that SPHINGOMAB could reduce de novo BV formation in vivo. To investigate this, we employed the in vivo Matrigel Plug assay for neovascularization. In one set of experiments, Matrigel was supplemented with either […], 0.5 μg/mL bFGF or 1 μg/mL VEGF and then injected […]. into mice (n=4). After 10 days, the mice were heparinized and injected with the fluorescent lectin, Isolectin B4-FITC, which binds to adhesion molecules expressed by vascular EC that form the growing BVs. The plugs were then excised, frozen in OCT, sectioned and viewed for FITC-stained BVs.
Sections of the plugs were then stained with hemotoxyln & eosin for evaluation of EC infiltration (FIG. 6B). The infiltration of ECs is a critical step in neo-vascularization. […] Cell infiltration is presumed to be ECs although we recognize that other cell types such as immune cells may also be stained.

B1: LT1002: murine anti-S1P monoclonal antibody, IgG1 kappa, hybridoma clone 306D326.26 (antibody, listed as Mus sp., V domains shown)
VH: QAHLQQSDAELVKPGASVKISCKVSGFIFIDHTIHWMKQRPEQGLEWIGCISPRHDITKYNEMFRGKATLTADKSSTTAYIQVNSLTFEDSAVYFCARGGFYGSTIWFDFWGQGTTLTVS
VL: ETTVTQSPASLSMAIGEKVTIRCITTTDIDDDMNWFQQKPGEPPNLLISEGNILRPGVPSRFSSSGYGTDFLFTIENMLSEDVADYYCLQSDNLPFTFGSGTKLEIK
- Specificity (ELISA) ([1]; In vitro activity, Table 7): High
- recognition of ceramide-1-phosphate (C1P) ([1]; listed as SPHINGOMAB): did not recognize
- recognition of ceramide-1-phosphate (C1P) ([1]; listed as anti-S1P mAb): no antibody binding was observed
- cross-reactivity with dihydrosphingosine-1-phosphate (DH-S1P) ([1]; competitor lipid DH-S1P): did cross react
- recognition of dihydrosphingosine (DH-SPH) ([1]; competitor lipid DH-SPH): did not recognize
- cross-reactivity to lysophosphatidic acid (LPA) ([1]; listed as SPHINGOMAB): no cross-reactivity
- cross-reactivity to lysophosphatidic acid (LPA) ([1]; listed as anti-S1P mAb): no binding
- recognition of phosphatidyl ethanolamine (PE) ([1]; competitor lipid PE): did not recognize
- recognition of phosphatidyl serine (PS) ([1]; competitor lipid PS): did not recognize
- recognition of sphingomyelin (SM) ([1]; competitor lipid SM): did not recognize
- cross-reactivity with sphingosylphosphorylcholine (SPC) ([1]; listed as SPHINGOMAB): to a lesser extent
- cross-reactivity with sphingosylphosphorylcholine (SPC) ([1]; listed as anti-S1P mAb): somewhat reduced
- cross-reactivity to sphingosine (SPH) ([1]; competitor lipid SPH): no cross-reactivity
- choroidal neovascularization ([2]; 14 and 28 days after laser-induced rupture of Bruch's membrane): dramatically attenuates
- fibrosis associated with CNV lesion formation ([2]; 28 days after laser-induced rupture): significantly reduces
- formation of capillary-like structures (HUVECs): failed to form capillary-like structures
- EC infiltration into S1P-containing Matrigel plugs [3]: reduced amount of EC infiltration
